B1: M8-A09 (Fab, V domains shown)
VH: EVQLLESGGGLVQPGGSLRLSCAASGFTFSTYFMLWVRQAPGKGLEWVSSIYPSGGNTVYADSVKGRFTISRDNSKNTLYLQMNSLRAEDTAVYYCARAASPVRNYYYYGMDVWGQGTTVTVSS
VL: QCELTQPPSESVSPGQTANITCSGDKLGNKYAYWYQQKPGQSPVLVIYQDNNRPSGIPERFSGSNSGNTATLTISGTQAIDEANYYCQAWDSRTVVFGGGTKLTVL
notes: Printed HC runs from VH into the start of CH1
B2: M38-F02 (Fab, V domains shown)
VH: EVQLLESGGGLVQPGGSLRLSCAASGFTFSYYMMVWVRQAPGKGLEWVSYIYSSGGHTVYADSVKGRFTISRDNSKNTLYLQMNSLRAEDTAVYYCARDLFLYDFWSKGAFDIWGQGTMVTVSS
VL: QSVLTQPPSVSVSPGQTASITCSGEKLGDKYVSWYQQKPGQSPSLVICEDSRRPSGIPERFSGSNSGNTATLTISGAQPMDEADYYCQAWDSSTAIFGPGTKVTVL
notes: as for B1
B3: M110-C12 (Fab, V domains shown)
VH: EVQLLESGGGLVQPGGSLRLSCAASGFTFSYYEMDWVRQAPGKGLEWVSGISSSGGHTAYADSVKGRFTISRDNSKNTLYLQMNSLRAEDTATYYCARERRSSSRARYYYGMDVWGQGTTVTVSS
VL: DIQMTQSPLSLSVTPGEPASISCRSSLSLLHSNGYNYLDWYVQRPGQSPQLLMYLSSTRASGVPDRFSGSGSGTDFTLEISRVEAEDVGVYYCMQPLETPPTFGGGTKVEIK
notes: as for B1
B4: M10-F10 (Fab, V domains shown)
VH: EVQLLESGGGLVQPGGSLRLSCAASGFTFSFYNMNWVRQAPGKGLEWVSSISPSGGETNYADSVKGRFTISRDNSKNTLYLQMNSLRAEDTAVYYCARGGGAYRNNWWGGFDIWGLGTMVTVSS
VL: DIQMTQSPSSLSASVGDRVTITCRASQSISVYLNWYQHKPGKAPKLLIYGASNLQFGVPSRFSGSGYGTDFTLTISSLQPEDFATYHCQQTFSLFTFGGGTKVEIK
notes: as for B1
B5: M6-D09 (Fab, V domains shown)
VH: EVQLLESGGGLVQPGGSLRLSCAASGFTFSFYYMVWVRQAPGKGLEWVSVIYPSGGITVYADSVKGRFTISRDNSKNTLYLQMNSLRAEDTAVYYCARDKWAVMPPYYYYAMDVWGQGTTVTVSS
VL: DIQMTQSPSSLSASVGDRVTITCRASQSIRNYLNWYQQKPGKAPNLLIYAASTLQSGVPARFSGSGSGTDFTLTISSLQPEDFATYYCQQLSGYPHTFGQGTKLEIK
notes: Printed HC runs from VH into the start of CH1; also called M06-D09; 559A-M06-D09
B6: M29-E09 (Fab, V domains shown)
VH: EVQLLESGGGLVQPGGSLRLSCAASGFTFSWYEMGWVRQAPGKGLEWVSSIYSSGGGTMYADSVKGRFTISRDNSKNTLYLQMNSLRAEDTAVYYCARNPQYSGYDRSLSDGAFDIWGQGTMVTVSS
VL: QYELTQPPSVSVSPGQTATITCSGDNLGNKYNSWYQQKPGQSPLLVIYQDTKRPSAIPERFSGSNSGNTATLTISGTQAMDEADYYCQAWDGNVVFGGGTKLTVL
notes: as for B1
B7: M7-E07 (Fab, V domains shown)
VH: EVQLLESGGGLVQPGGSLRLSCAASGFTFSWYLMIWVRQAPGKGLEWVSYIYPSGGFTYYADSVKGRFTISRDNSKNTLYLQMNSLRAEDMAVYYCARTEGPLSWGYGMDVWGQGTTVTVSS
VL: not shown
notes: as for B1
B8: M27-E05 (Fab, V domains shown)
VH: B7 VH
VL: not shown
notes: as for B1
B9: M35-G04 (Fab, V domains shown)
VH: EVQLLESGGGLVQPGGSLRLSCAASGFTFSYYHMSWVRQAPGKGLEWVSVISPSGGSTKYADSVKGRFTISRDNSKNTLYLQMNSLRAEDTAVYYCARGGSSDYAWGSYRRPYYFDYWGQGTLVTVSS
VL: DIQMTQSPATLSLSPGERATLSCRASQSVSSYLAWYQQKPGQAPRLLIYDASNRATGIPARFSGSGSGTDFTLTISSLEPEDFAVYYCQQRSNWPRGFTFGPGTKVDIK
notes: Printed HC runs from VH into the start of CH1; also called 559A-M35-G04; 559A-M0035-G04
B10: M76-D01 (Fab, V domains shown)
VH: EVQLLESGGGLVQPGGSLRLSCAASGFTFSFYAMHWVRQAPGKGLEWVSGIVPSGGRTHYADSVKGRFTISRDNSKNTLYLQMNSLRAEDTAVYYCATDSSGSPNPLFDYWGQGTLVTVSS
VL: DIVMTQTPPSLPVNPGEPASISCRSSQSLSDDGNTYLDWYLQRPGQSPQLLIHTLSYRASGVPDRFSGSGSGTDFTLKISRVEAEDVGVYYCMQGTHWPPTFGQGTKVEIK
notes: Printed HC runs from VH into the start of CH1 (printed end APSPKS)
B11: M73-D06 (Fab, V domains shown)
VH: EVQLLESGGGLVQPGGSLRLSCAASGFTFSRYEMYWVRQAPGKGLEWVSSISSSGGPTAYADSVKGRFTISRDNSKNTLYLQMNSLRAEDTAMYYCAKGTPKWELLLRSIYIENAFDIWGQGTMVTVSS
VL: QSELTQPPSASETPGQRVTISCSGSSSNIGSNTVSWFQQLPGSAPRLLIYNDHRRPSGVPDRFSGSKSGTSASLVISGLQSQDEADYYCSAWDDSLNGVVFGGGTKLTVL
notes: as for B1
B12: M137-E12 (Fab, V domains shown)
VH: EVQLLESGGGLVQPGGSLRLSCAASGFTFSDYRMQWVRQAPGKGLEWVSVIVPSGGNTMYADSVKGRFTISRDNSKNTLYLQMNSLRAEDTAVYYCARGGPGSSIAARRAPTGYYGMDVWGQGTTVTVSS
VL: QSVLIQPPSVSGIPGQRVTISCSGNNSNFGSNTVTWYQQLPGTAPKLLIYSDSRRPSGVPDRFSGSRSDTSASLAISGLQSEDEAEYHCAAWDDSLNGVFGGGTKLTVL
notes: as for B1
B13: M7-B04 (Fab, V domains shown)
VH: EVQLLESGGGLVQPGGSLRLSCAASGFTFSWYSMVWVRQAPGKGLEWVSSISPSGGLTNYADSVKGRFTISRDNSKNTLYLQMNSLRAEDTAVYYCARHTAARPFYYYYMDVWGKGTTVTVSS
VL: QSALTQPASVSGSPGQSITISCTGTNSDVGNYNLVSWYQQHPGEAPKLLIYEVNKRPSGVSNRFSGSKSGNTASLTISGLQAEDEADYLCCSYAGNRNFYVFGAGTKVTVL
notes: as for B1
B14: M29-D09 (Fab, V domains shown)
VH: EVQLLESGGGLVQPGGSLRLSCAASGFTFSWYTMVWVRQAPGKGLEWVSYIYPSGGATFYADSVKGRFTISRDNSKNTLYLQMNSLRAEDTAVYYCAMGSYDYIWGFYSDHWGQGTLVTVSS
VL: QSALTQPPTVSVSPGQTARITCSGNKLGDKYVAWYQQKPGQSPMLVIYQDTKRPSRVSERFSGSNSANTATLSISGTQALDEADYYCQAWDSSIVIFGGGTRLTVL
notes: Printed HC runs from VH into the start of CH1; also called 559A-M29-D09; 559A-M0029-D09
B15: M41-A11 (Fab, V domains shown)
VH: EVQLLESGGGLVQPGGSLRLSCAASGFTFSHYRMSWVRQAPGKGLEWVSSIYPSGGRTVYADSVKGRFTISRDNSKNTLYLQMNSLRAEDTAVYYCAKDKFEWRLLFRGIGNDAFDIWGQGTMVTVSS
VL: QSVLTQPPSVSVSPGQTASITCSGDKLGDKYTSWYQQRPGQSPVLVIYQDIKRPSGIPERFSGSNSGNTATLTISGTQAMDEADYYCQAWDSPNARVFGSGTKVTVL
notes: as for B1

Experiments:
[1] = molecular target: T1, human plasma kallikrein (human, UniProt P03952 20-390; P03952 391-638); assay: ELISA, biotinylated plasma kallikrein coated on microtiter plate, signal divided by streptavidin background
T1 construct: also called pKal; human pKal
T1 sequence (P03952 20-390, chain 1 of 2): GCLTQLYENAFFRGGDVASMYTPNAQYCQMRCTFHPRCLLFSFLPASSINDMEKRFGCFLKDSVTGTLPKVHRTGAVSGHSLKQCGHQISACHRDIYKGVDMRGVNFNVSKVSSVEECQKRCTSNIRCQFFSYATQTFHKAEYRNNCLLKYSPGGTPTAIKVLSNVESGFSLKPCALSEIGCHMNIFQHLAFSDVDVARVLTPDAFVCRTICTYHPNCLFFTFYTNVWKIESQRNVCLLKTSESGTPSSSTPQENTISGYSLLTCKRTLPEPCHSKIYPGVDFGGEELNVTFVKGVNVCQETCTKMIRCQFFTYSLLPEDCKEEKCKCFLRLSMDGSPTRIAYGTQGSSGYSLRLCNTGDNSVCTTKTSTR
T1 sequence (P03952 391-638, chain 2 of 2): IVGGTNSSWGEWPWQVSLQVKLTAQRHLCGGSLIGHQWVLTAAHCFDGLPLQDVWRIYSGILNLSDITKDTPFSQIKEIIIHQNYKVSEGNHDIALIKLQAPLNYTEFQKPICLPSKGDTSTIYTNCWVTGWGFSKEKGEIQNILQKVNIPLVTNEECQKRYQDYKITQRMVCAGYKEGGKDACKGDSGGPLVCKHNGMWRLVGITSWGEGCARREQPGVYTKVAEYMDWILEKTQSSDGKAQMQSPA
Description: Abbreviations used: "T/B" is the ELISA signal obtained using of the "target" (biotinylated plasma kallikrein) divided by the ELISA signal of the "background" (streptavidin); both of which were coated on microtiter plates. "nd" is not determined. The symbol "q" refers to the amber suppressible stop codon (TAG), which is translated as glutamine (Q) in strains of *E. coli* such as the TG1 cells that were used to express the Fab fragments.

[2] = molecular target: T1, human plasma kallikrein; assay: apparent inhibition constant (Ki,app) against human pKal, enzyme inhibition

Row | Binder | Human pKal ELISA (T/B) [1] | Ki [2]
1 | B1 | 5.4 ratio of ELISA signal on target to background (streptavidin) | 105 nM
2 | B2 | 33.5 ratio of ELISA signal on target to background (streptavidin) | 14 nM
3 | B3 | 2.4 ratio of ELISA signal on target to background (streptavidin) | < 100 nM
4 | B4 | 39.2 ratio of ELISA signal on target to background (streptavidin) | < 100 nM
5 | B5 | 39.9 ratio of ELISA signal on target to background (streptavidin) | 5.9 nM
6 | B6 | 28.8 ratio of ELISA signal on target to background (streptavidin) | 11 nM
7 | B7 | 45.7 ratio of ELISA signal on target to background (streptavidin) | 36 nM
8 | B8 | 41.3 ratio of ELISA signal on target to background (streptavidin) | 16 nM
9 | B9 | 11.1 ratio of ELISA signal on target to background (streptavidin) | 2.9 nM
10 | B10 | 11.2 ratio of ELISA signal on target to background (streptavidin) | < 100 nM
11 | B11 | 4 ratio of ELISA signal on target to background (streptavidin) | < 100 nM
12 | B12 | 4.5 ratio of ELISA signal on target to background (streptavidin) | 79 nM
13 | B13 | 4.1 ratio of ELISA signal on target to background (streptavidin) | 54 nM
14 | B14 | 47.5 ratio of ELISA signal on target to background (streptavidin) | 0.7 nM
15 | B15 | 28 ratio of ELISA signal on target to background (streptavidin) | 13 nM

Source: US9266964
